According to US20040141968A1 (published 2004):

B1: DC-SIGNR expressed on transiently transfected HEK 293T cells (receptor, human, UniProt Q9H2X3 1-399, looked up)
chain: MSDSKEPRVQQLGLLEEDPTTSGIRLFPRDFQFQQIHGHKSSTGCLGHGALVLQLLSFMLLAGVLVAILVQVSKVPSSLSQEQSEQDAIYQNLTQLKAAVGELSEKSKLQEIYQELTQLKAAVGELPEKSKLQEIYQELTRLKAAVGELPEKSKLQEIYQELTRLKAAVGELPEKSKLQEIYQELTRLKAAVGELPEKSKLQEIYQELTELKAAVGELPEKSKLQEIYQELTQLKAAVGELPDQSKQQQIYQELTDLKTAFERLCRHCPKDWTFFQGNCYFMSNSQRNWHDSVTACQEVRAQLVVIKTAEEQNFLQLQTSRSNRFSWMGLSDLNQEGTWQWVDGSPLSPSFQRYWNSGEPNNSGNEDCAEFSGSGWNDNRCDVDNYWICKKPAACFRDE
notes: whole, on cells
B2: human DC-SIGN (DC-Specific ICAM-Grabbing Nonintegrin) expressed at the cell surface (receptor, UniProt Q9NNX6 1-404, looked up)
chain: MSDSKEPRLQQLGLLEEEQLRGLGFRQTRGYKSLAGCLGHGPLVLQLLSFTLLAGLLVQVSKVPSSISQEQSRQDAIYQNLTQLKAAVGELSEKSKLQEIYQELTQLKAAVGELPEKSKLQEIYQELTRLKAAVGELPEKSKLQEIYQELTWLKAAVGELPEKSKMQEIYQELTRLKAAVGELPEKSKQQEIYQELTRLKAAVGELPEKSKQQEIYQELTRLKAAVGELPEKSKQQEIYQELTQLKAAVERLCHPCPWEWTFFQGNCYFMSNSQRNWHDSITACKEVGAQLVVIKSAEEQNFLQLQSSRSNRFTWMGLSDLNQEGTWQWVDGSPLLPSFKQYWNRGEPNNVGEEDCAEFSGNGWNDDKCNLAKFWICKKSAASCSRDEEQFLSPAPATPNPPPA
notes: whole, on cells; On transduced THP-1, HeLa and HEK 293T cells, and naturally on monocyte-derived dendritic cells; For HEK 293T the cDNA was in pcDNA3 myc-His (version A); also called CD209; DC-SIGN^+ THP-1 cells
B3: recombinant soluble CRD of DC-SIGN (amino acids 254-404) (receptor)
chain: HPCPWEWTFFQGNCYFMSNSQRNWHDSITACKEVGAQLVVIKSAEEQNFLQLQSSRSNRFTWMGLSDLNQEGTWQWVDGSPLLPSFKQYWNRGEPNNVGEEDCAEFSGNGWNDDKCNLAKFWICKKSAASCSRDEEQFLSPAPATPNPPPA
notes: range 254-404; Purified on Ni-NTA and mannose-agarose; also called DC-SIGN CRD; recombinant soluble CRD domain of DC-SIGN

Columns and labels:
HIV-1 gp120 (MN isolate) [1] = target: T1, HIV-1 gp120 (MN isolate) (HIV-1 (MN isolate), UniProt P05877 32-513, biotinylated when used as the labelled ligand on cells; unlabelled as competitor and on the SPR chip); test: flow cytometry; biotinylated protein on transfected HEK 293T cells, PE-streptavidin
T1 construct: domain: gp120; Unlabelled gp120 came from the NIBSC repository; also called biotinylated HIV-1 gp120; HIV-1 Env glycoprotein 120

[2] = target: T2, biotinylated Bovine Serum Albumine (bovine, UniProt P02769 25-607); test: flow cytometry; biotinylated BSA on HEK 293T cells transfected with DC-SIGNR, PE-streptavidin
T2 construct: also called BSA; biotinylated-BSA

[3] = target: T2, biotinylated Bovine Serum Albumine; test: flow cytometry; biotinylated BSA on HEK 293T cells transfected with DC-SIGN, PE-streptavidin
[4] = target: T3, HSV-1 glycoprotein B, soluble (HSV-1, UniProt P10211 31-730); test: SPR; DC-SIGN CRD injected over immobilised HSV-1 gB
T3 construct: also called HSV-1 gB; gB HSV

HIV-1 gp120 (MN isolate) [5] = target: T1, HIV-1 gp120 (MN isolate); test: SPR (Biacore); DC-SIGN CRD injected over immobilised HIV-1 gp120; from koff/kon
HIV-1 gp120 (MN isolate) [6] = target: T1, HIV-1 gp120 (MN isolate); test: SPR (Biacore); DC-SIGN CRD injected over immobilised HIV-1 gp120; Langmuir fit, average

T2 sequence (P02769 25-607 limits assumed): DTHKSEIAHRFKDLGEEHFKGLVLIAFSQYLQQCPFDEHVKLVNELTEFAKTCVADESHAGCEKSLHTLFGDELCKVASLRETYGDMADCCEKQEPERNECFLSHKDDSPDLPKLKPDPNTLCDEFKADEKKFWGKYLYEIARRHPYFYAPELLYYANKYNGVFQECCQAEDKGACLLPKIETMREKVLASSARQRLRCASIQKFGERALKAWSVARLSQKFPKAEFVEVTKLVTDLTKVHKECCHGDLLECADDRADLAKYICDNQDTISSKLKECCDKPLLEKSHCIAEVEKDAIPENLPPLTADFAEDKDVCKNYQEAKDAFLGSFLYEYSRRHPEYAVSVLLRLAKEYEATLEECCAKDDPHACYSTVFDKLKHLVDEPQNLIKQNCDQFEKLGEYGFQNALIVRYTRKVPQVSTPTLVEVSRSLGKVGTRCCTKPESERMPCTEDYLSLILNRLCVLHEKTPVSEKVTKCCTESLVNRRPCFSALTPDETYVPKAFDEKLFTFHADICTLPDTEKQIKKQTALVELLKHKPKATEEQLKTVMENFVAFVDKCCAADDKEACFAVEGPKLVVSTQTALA

| Binder | binding result (HIV-1 gp120 (MN isolate) [1]) | binding result [2] | binding result [3] | binding result [4] | Kd (HIV-1 gp120 (MN isolate) [5]) | koff (HIV-1 gp120 (MN isolate) [6]) | kon (HIV-1 gp120 (MN isolate) [6]) |
| --- | --- | --- | --- | --- | --- | --- | --- |
| B1 | binds | no binding | – | – | – | – | – |
| B2 | binds | – | no binding | – | – | – | – |
| B3 | – | – | – | no binding (tested: 0.13 to 1 µM) | 0.3 µM | 0.00101 s⁻¹ | 3330 M⁻¹ s⁻¹ |
